Data taken from patent publication US20120034671A1 (RESEARCH FOUNDATION OF THE CITY UNIVERSITY OF NEW YORK, published 2012).

Target: the molecule itself
Assay: self-association (homodimerization), observed with NMR (FIG. 3A-3C)

B1: HP-7 polypeptide (SEQ ID NO: 7) (peptide)
chain: GEIWKQHEDALQKFEEALNQFEDLKQLGGSGCGSGGEIWKQHEDALQKFEEALNQFEDLKQL
notes: also called free HP-7
binding result: binds
